# Laboratory results taken from patent EP1327680B1 (CHUGAI SEIYAKU KABUSHIKI KAISHA, dated 2008).
# T1: human TPO receptor (MPL) expressed on Ba/F3 cells (human, UniProt P40238 26-635)
# T1 sequence (looked up): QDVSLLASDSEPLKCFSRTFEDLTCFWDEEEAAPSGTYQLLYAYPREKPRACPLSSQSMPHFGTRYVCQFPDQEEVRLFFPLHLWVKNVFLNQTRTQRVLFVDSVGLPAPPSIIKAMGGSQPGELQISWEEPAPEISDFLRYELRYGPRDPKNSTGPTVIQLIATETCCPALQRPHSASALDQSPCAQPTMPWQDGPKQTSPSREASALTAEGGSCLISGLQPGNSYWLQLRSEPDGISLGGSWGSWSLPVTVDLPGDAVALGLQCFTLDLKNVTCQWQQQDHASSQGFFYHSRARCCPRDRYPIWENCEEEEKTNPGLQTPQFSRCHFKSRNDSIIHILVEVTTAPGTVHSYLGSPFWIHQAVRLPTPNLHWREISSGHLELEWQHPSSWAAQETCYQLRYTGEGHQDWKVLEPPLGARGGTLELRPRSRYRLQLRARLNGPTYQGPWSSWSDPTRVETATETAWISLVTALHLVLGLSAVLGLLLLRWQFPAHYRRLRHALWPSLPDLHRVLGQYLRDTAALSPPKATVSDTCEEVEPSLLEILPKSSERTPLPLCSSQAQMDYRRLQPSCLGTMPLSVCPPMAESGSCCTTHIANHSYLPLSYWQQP
# B1: antibody 12B5 (IgG) (antibody, V domains shown)
# VH: QVQLVQSGGGLVRPGGSLSLSCAVSGITLRTYGMHWVRQAPGKGLEWVAGISFDGRSEYYADSVQGRFTISRDSSKNTLYLQMNSLRAEDTAVYYCARGAHYGFDIWGQGTMVTVSS
# VL: DIQMTQSPSTLSASIGDRVTITCRASEGIYHWLAWYQQKPGKAPKLLIYKASSLASGAPSRFSGSGSGTDFTLTISSLQPDDFATYYCQQYSNYPLTFGGGTKLEIK
# B2: 12B5Fab fragment (Fab, V domains shown)
# VH: B1 VH
# VL: B1 VL
# B3: reconstructed 12B5 single chain Fv (sc12B5), culture supernatant of COS-7 cells (scFv)
# scFv: QVQLVQSGGGLVRPGGSLSLSCAVSGITLRTYGMHWVRQAPGKGLEWVAGISFDGRSEYYADSVQGRFTISRDSSKNTLYLQMNSLRAEDTAVYYCARGAHYGFDIWGQGTMVTVSSGGGGSGGGGSGGGGSDIQMTQSPSTLSASIGDRVTITCRASEGIYHWLAWYQQKPGKAPKLLIYKASSLASGAPSRFSGSGSGTDFTLTISSLQPDDFATYYCQQYSNYPLTFGGGTKLEIKDYKDDDDK
# B4: sc12B5 monomer (scFv)
# scFv: B3 scFv
# B5: sc12B5 dimer (scFv)
# scFv: B3 scFv
# How the values were obtained:
# [1] = biological target: human TPO receptor (MPL) expressed on Ba/F3 cells (human) (UniProt P40238); experiment: cell-based or functional assay
# [2] = biological target: T1, human TPO receptor (MPL) expressed on …; experiment: cell-based or functional assay
Molecule,"ED50, agonist activity, proliferation of BaF/mpl cells (WST-8) [1] [nM]","ED50, TPO-like agonist activity, proliferation of BaF/mpl cells (WST-8) [2] [nM]","agonist activity, fold against monovalent sc12B5 [2] [fold]"
human TPO (R&D Systems) (from UniProt P40225 22-353) (ligand),0.027,–,–
B1,–,29,–
B2,–,34700,–
B3,–,75,–
B4,–,4440,–
B5,–,10.1,~400
